{
  "source": "patent US20030105000A1",
  "about": "(UNIVERSITY OF VERMONT AND STATE AGRICULTURAL COLLEGE, published 2003)",
  "key": {"[1]": {"target": "T1, Grb7-SH2 domain-GST (SH2 domain of human Grb7 containing a GST fusion tag) (human, UniProt Q14451 415-532)", "T1 construct": "domain: SH2 domain; Purified from E. coli; also called Grb7-SH2-GST; not shown: glutathione-S-transferase (GST) fusion tag", "T1 sequence (Q14451 415-532)": "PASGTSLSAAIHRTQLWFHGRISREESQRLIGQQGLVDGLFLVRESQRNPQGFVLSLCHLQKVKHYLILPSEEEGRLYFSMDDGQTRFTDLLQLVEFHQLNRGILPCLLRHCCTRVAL", "experiment": "assay not described (sentence of Example 3)"}, "[2]": {"target": "T1, Grb7-SH2 domain-GST (SH2 domain of …)", "experiment": "competition ELISA on Grb7-SH2-GST; competitor G7-8NA peptide-phage (FIG. 5B)", "text": "(§1) Unbound phage were washed away with Tween-TBS buffer and bound phage were detected with anti-M13-horseradish peroxidase (Amersham-Pharmacia Biotech) and ABTS substrate (Calbiochem). […] Plates were read at OD₄₀₅."}, "[3]": {"target": "T1, Grb7-SH2 domain-GST (SH2 domain of …)", "experiment": "competition ELISA on Grb7-SH2-GST; competitor G7-18 peptide-phage (FIG. 5A)", "text": "as §1"}, "Grb14-SH2-GST": {"target": "T2, Grb14-SH2-GST (UniProt Q14449 423-540)", "T2 construct": "domain: SH2 domain; also called SH2 domain of Grb14; not shown: glutathione-S-transferase (GST) fusion partner", "T2 sequence (looked up)": "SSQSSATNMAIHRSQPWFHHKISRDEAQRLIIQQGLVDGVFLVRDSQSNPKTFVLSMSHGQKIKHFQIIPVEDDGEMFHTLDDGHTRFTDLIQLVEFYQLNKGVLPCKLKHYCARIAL", "experiment": "phage ELISA (FIG. 4)"}, "Grb2-GST [4]": {"target": "T3, Grb2-GST (UniProt P62993 1-217)", "T3 construct": "also called full length Grb2; not shown: glutathione-S-transferase (GST) fusion partner", "T3 sequence (P62993 whole entry, the tested form may be a part)": "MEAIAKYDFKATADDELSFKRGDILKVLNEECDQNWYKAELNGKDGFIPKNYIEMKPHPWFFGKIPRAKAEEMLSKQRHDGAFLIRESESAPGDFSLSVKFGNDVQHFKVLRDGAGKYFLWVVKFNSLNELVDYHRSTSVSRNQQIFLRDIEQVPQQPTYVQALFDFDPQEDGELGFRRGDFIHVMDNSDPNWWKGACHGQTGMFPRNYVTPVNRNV", "experiment": "phage ELISA on coated protein (FIG. 1)", "text": "(§2) The overall methodology of an ELISA is well established. […] Non-specific binding was blocked by casein. Binding of phage was detected using an anti-phage antibody conjugated to horseradish peroxidase."}, "BSA": {"target": "T4, BSA (UniProt P02769 25-607)", "T4 construct": "also called bovine serum albumin", "T4 sequence (P02769 25-607 limits assumed)": "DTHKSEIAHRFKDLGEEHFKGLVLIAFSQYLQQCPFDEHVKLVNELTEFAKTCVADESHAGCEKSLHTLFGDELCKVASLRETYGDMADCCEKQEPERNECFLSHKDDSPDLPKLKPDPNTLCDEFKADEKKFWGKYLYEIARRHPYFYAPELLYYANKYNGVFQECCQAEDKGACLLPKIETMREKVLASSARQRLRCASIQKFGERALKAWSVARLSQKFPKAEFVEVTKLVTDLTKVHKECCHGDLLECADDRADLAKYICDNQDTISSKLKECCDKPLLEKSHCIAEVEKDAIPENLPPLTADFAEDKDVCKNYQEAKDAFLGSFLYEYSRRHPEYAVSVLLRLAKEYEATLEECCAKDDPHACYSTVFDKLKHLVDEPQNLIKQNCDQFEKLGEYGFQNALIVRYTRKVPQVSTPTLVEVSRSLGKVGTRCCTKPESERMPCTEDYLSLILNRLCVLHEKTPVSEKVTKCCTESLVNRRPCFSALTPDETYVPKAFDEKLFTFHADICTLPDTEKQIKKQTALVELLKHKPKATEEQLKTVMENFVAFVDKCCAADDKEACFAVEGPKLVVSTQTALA", "experiment": "phage ELISA on coated protein (FIG. 1)", "text": "as §2"}, "GST alone": {"target": "T5, GST alone (UniProt P08515 1-218 = GST)", "T5 construct": "Control protein coated on the ELISA plate; also called fusion protein (GST)", "T5 sequence (P08515 whole entry, the tested form may be a part)": "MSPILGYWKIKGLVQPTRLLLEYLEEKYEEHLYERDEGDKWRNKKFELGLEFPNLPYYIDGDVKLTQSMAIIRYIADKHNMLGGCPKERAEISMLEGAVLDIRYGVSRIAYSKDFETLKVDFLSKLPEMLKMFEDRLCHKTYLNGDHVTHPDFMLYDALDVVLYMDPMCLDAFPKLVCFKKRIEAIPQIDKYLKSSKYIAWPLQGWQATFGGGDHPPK", "experiment": "phage ELISA on coated protein (FIG. 1)", "text": "as §2"}, "[5]": {"target": "T1, Grb7-SH2 domain-GST (SH2 domain of …)", "experiment": "phage ELISA on coated Grb7-SH2 domain-GST, anti-phage-HRP (FIG. 1)", "text": "as §2"}, "Grb2-GST [6]": {"target": "T3, Grb2-GST", "experiment": "competition ELISA against Grb2-binding peptide-phage (data not shown)"}, "[7]": {"target": "T1, Grb7-SH2 domain-GST (SH2 domain of …)", "experiment": "competition ELISA on Grb7-SH2-GST; free peptide 1, 10, 100 uM; competitor G7-18 peptide-phage (FIG. 5A)", "text": "as §1"}, "Grb2-GST [8]": {"target": "T3, Grb2-GST", "experiment": "phage ELISA (FIG. 4)"}, "[9]": {"target": "T1, Grb7-SH2 domain-GST (SH2 domain of …)", "experiment": "phage ELISA (legend of FIG. 1)", "text": "as §2"}},
  "note": "Positions of bridges follow the written chain, without caps; N, C: chain ends. No end group written: not given here.",
  "data": [
    {"binder": "CKYLYYDNDYLC (disulfide 1-12 (inferred))", "note": "[G7BP-1NA]", "values": [
      {"measurement": "binding result", "setting": "[1]", "result": "binds"}
    ]},
    {"binder": "CGYIGYDNIFEC (disulfide 1-12 (inferred))", "note": "[G7BP-7NA]", "values": [
      {"measurement": "binding result", "setting": "[1]", "result": "binds"}
    ]},
    {"binder": "VFWGYANDWLC (non-phosphorylated; thioether bond between the ends of the peptide (N-terminal cysteine replaced by another functional group), Lacks the arms; also called G7BP-4NATE)", "note": "[G7-8NATE free synthetic peptide]", "values": [
      {"measurement": "binding result", "setting": "[2]", "result": "binds"}
    ]},
    {"binder": "CWFEGYDNTFPC (also called G7-18NA)", "note": "[G7BP-5NA]", "values": [
      {"measurement": "binding result", "setting": "[1]", "result": "binds"}
    ]},
    {"binder": "WFEGYDNTFPC (non-phosphorylated; thioether bond between the ends of the peptide (N-terminal cysteine replaced by another functional group), Lacks the 4-residue arms on both sides; cyclised by a thioether; also called G7BP-5NATE; G7-18NATE (thioether))", "note": "[G7-18NATE free synthetic peptide]", "values": [
      {"measurement": "binding result", "setting": "[3]", "result": "binds"}
    ]},
    {"binder": "CIYIHYDNWSLC (disulfide 1-12 (inferred))", "note": "[G7BP-3NA]", "values": [
      {"measurement": "binding result", "setting": "[1]", "result": "binds"}
    ]},
    {"binder": "CNEELYENCGGC (disulfide (positions not given here); not fully specified)", "note": "[G7BP-6NA]", "values": [
      {"measurement": "binding result", "setting": "[1]", "result": "binds"}
    ]},
    {"binder": "RSTLCWFEGYDNTFPCKYFR (peptide, not shown: large carriers, disulfide 5-16; also: displayed on phage gene III protein, Tested as a phage clone; also called G7-18 peptide-phage)", "note": "[G7BP-5 peptide-phage clone]", "values": [
      {"measurement": "binding result", "setting": "Grb14-SH2-GST", "result": "no binding"},
      {"measurement": "binding result", "setting": "Grb2-GST [4]", "result": "no binding"},
      {"measurement": "binding result", "setting": "BSA", "result": "no binding"},
      {"measurement": "binding result", "setting": "GST alone", "result": "no binding"},
      {"measurement": "binding result", "setting": "[5]", "result": "binds"}
    ]},
    {"binder": "RTSPCGYIGYDNIFECTYLG (peptide, not shown: large carriers, disulfide 5-16; also: displayed on phage gene III protein, Tested as a phage clone displaying the peptide on the gene III protein)", "note": "[G7BP-7 peptide-phage clone]", "values": [
      {"measurement": "binding result", "setting": "Grb14-SH2-GST", "result": "no binding"},
      {"measurement": "binding result", "setting": "Grb2-GST [4]", "result": "no binding"},
      {"measurement": "binding result", "setting": "BSA", "result": "no binding"},
      {"measurement": "binding result", "setting": "GST alone", "result": "no binding"},
      {"measurement": "binding result", "setting": "[5]", "result": "binds"}
    ]},
    {"binder": "GVSNCVFWGYANDWLCSDYS (disulfide 5-16 (inferred), Free synthetic peptide, not on phage; also called G7BP-4)", "note": "[G7-8 free synthetic peptide]", "values": [
      {"measurement": "binding result", "setting": "Grb2-GST [6]", "result": "no binding"},
      {"measurement": "binding result", "setting": "[7]", "result": "binds"}
    ]},
    {"binder": "FCAVCNEELYENCGGCSVGK (peptide, not shown: large carriers, disulfide 5-16; cysteine pairing not given here; also: displayed on phage gene III protein, Tested as a phage clone displaying the peptide on the gene III protein)", "note": "[G7BP-6 peptide-phage clone]", "values": [
      {"measurement": "binding result", "setting": "Grb14-SH2-GST", "result": "no binding"},
      {"measurement": "binding result", "setting": "Grb2-GST [4]", "result": "no binding"},
      {"measurement": "binding result", "setting": "BSA", "result": "no binding"},
      {"measurement": "binding result", "setting": "GST alone", "result": "no binding"},
      {"measurement": "binding result", "setting": "[5]", "result": "binds"}
    ]},
    {"binder": "RSTLCWFEGYDNTFPCKYFR (disulfide 5-16 (inferred), Free synthetic peptide, not on phage; also called G7BP-5; G7-18 (disulfide))", "note": "[G7-18 free synthetic peptide]", "values": [
      {"measurement": "binding result", "setting": "Grb2-GST [6]", "result": "no binding"},
      {"measurement": "binding result", "setting": "[7]", "result": "binds"}
    ]},
    {"binder": "KLFWCTYEDYANEWPCPGYS (peptide, not shown: large carriers, disulfide 5-16; also: displayed on phage gene III protein, Tested as a phage clone displaying the peptide on the gene III protein)", "note": "[G7BP-2 peptide-phage clone]", "values": [
      {"measurement": "binding result", "setting": "Grb2-GST [8]", "result": "no binding"},
      {"measurement": "binding result", "setting": "Grb14-SH2-GST", "result": "no binding"},
      {"measurement": "binding result", "setting": "[9]", "result": "binds"},
      {"measurement": "binding result", "setting": "BSA", "result": "no binding"},
      {"measurement": "binding result", "setting": "GST alone", "result": "no binding"}
    ]},
    {"binder": "GVSNCVFWGYANDWLCSDYS (peptide, not shown: large carriers, disulfide 5-16; also: displayed on phage gene III protein, Tested as a phage clone displaying the peptide on the gene III protein; also called G7-8 peptide-phage)", "note": "[G7BP-4 peptide-phage clone]", "values": [
      {"measurement": "binding result", "setting": "Grb14-SH2-GST", "result": "no binding"},
      {"measurement": "binding result", "setting": "Grb2-GST [4]", "result": "no binding"},
      {"measurement": "binding result", "setting": "BSA", "result": "no binding"},
      {"measurement": "binding result", "setting": "GST alone", "result": "no binding"},
      {"measurement": "binding result", "setting": "[5]", "result": "binds"}
    ]},
    {"binder": "NVSECIYIHYDNWSLCGVEV (peptide, not shown: large carriers, disulfide 5-16; also: displayed on phage gene III protein, Tested as a phage clone displaying the peptide on the gene III protein)", "note": "[G7BP-3 peptide-phage clone]", "values": [
      {"measurement": "binding result", "setting": "Grb14-SH2-GST", "result": "no binding"},
      {"measurement": "binding result", "setting": "Grb2-GST [4]", "result": "no binding"},
      {"measurement": "binding result", "setting": "BSA", "result": "no binding"},
      {"measurement": "binding result", "setting": "GST alone", "result": "no binding"},
      {"measurement": "binding result", "setting": "[5]", "result": "binds"}
    ]}
  ]
}
